Reference: patent US20040014072, “Novel dna synthase” (published 2004)

T1: p41-p46 complex (DNA primase/polymerase) (Pyrococcus furiosus, UniProt Q9P9H1;Q8U4H7 SEQ:1-347,SEQ:1-396)
T1 sequence 1: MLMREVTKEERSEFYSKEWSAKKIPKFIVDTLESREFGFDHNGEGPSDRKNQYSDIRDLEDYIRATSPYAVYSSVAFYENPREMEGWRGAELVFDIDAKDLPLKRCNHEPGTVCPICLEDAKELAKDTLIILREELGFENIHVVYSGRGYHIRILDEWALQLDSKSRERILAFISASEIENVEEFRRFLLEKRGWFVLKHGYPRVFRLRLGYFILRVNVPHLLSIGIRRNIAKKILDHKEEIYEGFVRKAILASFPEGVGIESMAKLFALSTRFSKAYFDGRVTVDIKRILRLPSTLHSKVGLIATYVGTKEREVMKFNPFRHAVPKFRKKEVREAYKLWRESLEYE
T1 sequence 2: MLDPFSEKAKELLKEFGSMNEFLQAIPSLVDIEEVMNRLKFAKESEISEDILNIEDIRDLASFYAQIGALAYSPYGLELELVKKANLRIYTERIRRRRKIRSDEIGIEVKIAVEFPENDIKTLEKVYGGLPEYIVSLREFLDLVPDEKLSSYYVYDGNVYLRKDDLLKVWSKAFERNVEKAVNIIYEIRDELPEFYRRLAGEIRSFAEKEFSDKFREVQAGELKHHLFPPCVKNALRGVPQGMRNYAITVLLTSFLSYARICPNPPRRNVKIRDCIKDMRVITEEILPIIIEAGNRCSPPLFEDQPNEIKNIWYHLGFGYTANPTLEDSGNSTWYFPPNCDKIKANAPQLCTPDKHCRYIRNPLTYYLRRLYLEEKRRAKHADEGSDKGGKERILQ

T2: p41 (Pyrococcus furiosus, UniProt Q9P9H1 SEQ:1-347)
T2 sequence: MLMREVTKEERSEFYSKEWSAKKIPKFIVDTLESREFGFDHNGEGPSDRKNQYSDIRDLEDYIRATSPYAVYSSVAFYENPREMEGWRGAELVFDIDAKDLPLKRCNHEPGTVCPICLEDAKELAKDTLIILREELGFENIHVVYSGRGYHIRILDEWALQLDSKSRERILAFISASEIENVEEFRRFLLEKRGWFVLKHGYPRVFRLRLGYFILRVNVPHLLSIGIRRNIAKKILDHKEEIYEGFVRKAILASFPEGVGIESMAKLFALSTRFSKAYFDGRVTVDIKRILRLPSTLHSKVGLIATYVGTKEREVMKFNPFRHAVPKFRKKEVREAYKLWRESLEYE

T3: p46 (Pyrococcus furiosus, UniProt Q8U4H7 SEQ:1-396)
T3 sequence: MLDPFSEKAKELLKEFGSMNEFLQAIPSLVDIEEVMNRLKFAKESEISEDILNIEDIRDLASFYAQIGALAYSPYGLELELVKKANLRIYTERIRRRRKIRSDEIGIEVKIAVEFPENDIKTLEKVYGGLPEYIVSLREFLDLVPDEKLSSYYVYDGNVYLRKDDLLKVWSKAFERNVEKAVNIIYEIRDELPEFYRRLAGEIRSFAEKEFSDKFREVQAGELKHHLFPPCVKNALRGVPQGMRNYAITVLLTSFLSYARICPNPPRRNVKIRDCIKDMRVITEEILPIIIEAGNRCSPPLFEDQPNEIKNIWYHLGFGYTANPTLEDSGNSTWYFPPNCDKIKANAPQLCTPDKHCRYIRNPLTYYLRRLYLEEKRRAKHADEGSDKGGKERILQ


Experiments:
[1] = target: T1, p41-p46 complex (DNA primase/polymerase); assay: EMSA; 50 mM Tris-Cl pH 8.0, 10 mM MgCl2, 20 mM KCl, 55 C; settings: tags: N-terminal His6 on p41, p46 untagged, label: 5'-32P
Protocol: (§1) The gel-shift assey was used to detect binding activity that binds enzyme to DNA. 49 chain-length oligodeoxynuclotide, 5′-d[…] GCT-3′ was labeled with ³²P at 5′ terminal. Then the chain was used for gel-shift assey with itself or annealed with 49 or 17 chain length complementary oligodeoxynuclotide. With these three kinds of DNA, and the proteins were mixed in variety of concentrations in gel-shift assey buffer (50 mM Tris.Cl, pH8.0, 10 mM MgCl₂, 20 mM KCl, and 1 mM β-mercaptoethanol). The mixtures were left for 5 minutes under temperature of 55° C. and separated by electrophoreting with 1% agarose gel. The gel was processed by 0.1×TAE buffer (4 mM Tris-Acetate, pH8.0, 0.1 mM EDTA) and electrophoreted with same buffer. Autoradiography after the electrophoration was shown in FIG. 5. p41-p46 complex bound to all types of DNA and shifted the band as the complex.

[2] = target: T2, p41; assay: EMSA; no band shift for p41 alone, data not shown; settings: tags: N-terminal His6, label: 5'-32P
Protocol: as §1

[3] = target: T3, p46; assay: EMSA; no band shift for p46 alone, data not shown; settings: label: 5'-32P
Protocol: as §1

| Binder | binding result [1] | binding result [2] | binding result [3] | binding result ([1]; full duplex) | binding result ([2]; full duplex) | binding result ([3]; full duplex) |
| --- | --- | --- | --- | --- | --- | --- |
| AGCTACCATGCCTGCACGAATTAAGCAATTCGTAATCATGGTCATAGCT (ssDNA) [49-mer oligodeoxynucleotide] | binds | no binding | no binding |  |  |  |
| 49-mer annealed to complementary 49-mer (dsDNA) DNA 1: AGCTACCATGCCTGCACGAATTAAGCAATTCGTAATCATGGTCATAGCT DNA 2: AGCTATGACCATGATTACGAATTGCTTAATTCGTGCAGGCATGGTAGCT |  |  |  | binds | no binding | no binding |
